Drawing on patent US20200339648A1 (University of Washington, published 2020), this text covers Kd for three molecules.

T1: human IL-2 receptor β subunit (hIL-2Rβ) (human, UniProt P14784 27-240, biotin on the C-terminal biotin acceptor peptide)
T1 construct: Biotinylated and immobilised on streptavidin; also called HsIL-2Rβ; human IL-2Rβ
T1 sequence: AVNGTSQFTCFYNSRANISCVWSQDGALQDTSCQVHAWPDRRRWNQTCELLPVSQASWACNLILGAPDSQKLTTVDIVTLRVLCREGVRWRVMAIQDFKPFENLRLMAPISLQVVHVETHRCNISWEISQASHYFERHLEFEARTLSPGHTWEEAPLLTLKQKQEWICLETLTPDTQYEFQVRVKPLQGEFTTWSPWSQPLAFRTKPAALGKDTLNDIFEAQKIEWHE

T2: mouse IL-2 receptor β subunit (mIL-2Rβ) (mouse, UniProt P16297 27-240, biotin on the C-terminal biotin acceptor peptide)
T2 construct: extracellular domain; Biotinylated form for SPR; also called MmIL-2Rβ; murine IL-2Rβ
T2 sequence: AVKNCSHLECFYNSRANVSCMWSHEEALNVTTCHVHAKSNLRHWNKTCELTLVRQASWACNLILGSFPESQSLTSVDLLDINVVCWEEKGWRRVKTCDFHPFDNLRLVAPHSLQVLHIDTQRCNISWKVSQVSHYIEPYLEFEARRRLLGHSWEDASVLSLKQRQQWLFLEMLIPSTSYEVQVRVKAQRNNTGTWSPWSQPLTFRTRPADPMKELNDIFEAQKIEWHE

T3: human IL-2 receptor βγc heterodimer (hIL-2Rβγc), soluble (human, UniProt P14784 27-240; P31785 23-254, biotin on the C-terminal biotin acceptor peptide)
T3 construct: also called HsIL-2Rβγc; hIL-2Rβνc
T3 sequence 1: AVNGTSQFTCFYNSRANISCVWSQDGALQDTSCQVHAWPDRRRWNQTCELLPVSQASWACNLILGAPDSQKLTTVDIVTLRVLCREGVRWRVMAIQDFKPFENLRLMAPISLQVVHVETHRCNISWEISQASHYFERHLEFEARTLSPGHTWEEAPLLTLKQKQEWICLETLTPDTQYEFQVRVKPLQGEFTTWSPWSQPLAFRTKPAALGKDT
T3 sequence 2: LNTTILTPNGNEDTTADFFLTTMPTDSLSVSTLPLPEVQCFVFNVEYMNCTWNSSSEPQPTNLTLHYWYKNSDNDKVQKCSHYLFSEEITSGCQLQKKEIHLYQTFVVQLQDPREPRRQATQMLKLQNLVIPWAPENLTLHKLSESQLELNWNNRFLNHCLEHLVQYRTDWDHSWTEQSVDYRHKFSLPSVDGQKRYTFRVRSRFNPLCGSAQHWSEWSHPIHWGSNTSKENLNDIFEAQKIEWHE

T4: mouse IL-2 receptor βγc heterodimer (mIL-2Rβγc), soluble (mouse, UniProt P16297 27-240; P34902 23-263, biotin on the C-terminal biotin acceptor peptide)
T4 construct: extracellular domain; also called MmIL-2Rβγc; mIL-2Rβνc
T4 sequence 1: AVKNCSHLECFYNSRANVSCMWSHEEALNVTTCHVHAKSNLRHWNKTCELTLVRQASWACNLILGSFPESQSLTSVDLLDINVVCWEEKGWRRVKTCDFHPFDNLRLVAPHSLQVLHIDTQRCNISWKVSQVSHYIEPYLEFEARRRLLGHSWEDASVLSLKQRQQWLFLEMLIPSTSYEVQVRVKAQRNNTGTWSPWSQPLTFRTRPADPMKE
T4 sequence 2: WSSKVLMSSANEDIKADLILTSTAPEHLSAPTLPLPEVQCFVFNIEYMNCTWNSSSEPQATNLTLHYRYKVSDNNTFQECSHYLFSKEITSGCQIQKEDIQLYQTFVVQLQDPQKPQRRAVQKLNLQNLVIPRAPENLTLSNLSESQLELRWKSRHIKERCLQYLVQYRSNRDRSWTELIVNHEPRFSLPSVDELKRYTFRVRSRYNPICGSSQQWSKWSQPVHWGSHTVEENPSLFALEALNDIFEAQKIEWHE

B1: mouse interleukin-2 (mIL-2) (ligand, UniProt P04351 21-169, looked up)
chain: APTSSSTSSSTAEAQQQQQQQQQQQQHLEQLLMDLQELLSRMENYRNLKLPRMLTFKFYLPKQATELKDLQCLEDELGPLRHVLDLTQSKSFQLEDAENFISNIRVTVVKLKGSDNTFECQFDDESATVVDFLRRWIAFCQSIISTSPQ
notes: range 1-149; Baculovirus expression for SPR; also called MmIL-2; mouse IL-2
B2: G1_neo2_40_1F (designed binder)
chain: STKKTQLLAEHALLDALMMLNLLPEPNEKLNRIITTMQSWIFTGKIDGDGAQELAKEVEELEQEHEKRGIDVEDYASNLKVILLELA
notes: also called G1_ne02_40_1F
B3: G2_neo2_40_1F_dsn36 (designed binder)
chain: PKKKIQLLAEHALLDALMILNIVKTNSQNAEEKLEDYASNVEVILEEIARLMESGDQKDEAEKAKRMKEWMKRIKTTASEDEQEEMANRIITLLQSWIFS
notes: E. coli, N-terminal 6xHis tag and thrombin site

The first test addresses T1, human IL-2 receptor β subunit (hIL-2Rβ). As to the kind of experiment: SPR, equilibrium titration; biotinylated IL-2Rβ on streptavidin chip.
B1: binding was put at a Kd of 4950 nM.

Turning to B2, the equilibrium dissociation constant (Kd) amounted to 2.6 nM.

Molecule B3 had a Kd of 27.6 nM.

A further test deals with T2, mouse IL-2 receptor β subunit (mIL-2Rβ). Described as above.
The molecule B1 returned a dissociation constant (Kd) of 1500 nM.

In turn, B2 showed a Kd of 486 nM.

For B3, the Kd is 2430 nM.

A further test has as its target T3, human IL-2 receptor βγc heterodimer …. Kind of test: SPR, equilibrium titration; IL-2Rγ on streptavidin chip, saturating IL-2Rβ in solution.
With B1, the Kd turned out to be 8030 nM.

Molecule B2 returned a dissociation constant Kd of 2.3 nM.

Take B3: the Kd amounted to 114 nM.

For another test, the target named is T4, mouse IL-2 receptor βγc heterodimer …. The description is as above.
B1 gave a Kd of 126 nM.

In turn, B2 came in with a dissociation constant (Kd) of 7.9 nM.

For the molecule B3, binding was put at a Kd of 568 nM.
